In IntAct's records for PubMed 12193598:

B1: Palmitoyltransferase ERF2 (Saccharomyces cerevisiae), Q06551 (parent)
chain: MALVSRRSTRSESTSITKEEHTGEGSLTKLFFRWLVTLEGDQDINDGKGYISLPNVSNYIFFLGGRFRTVKGAKPLWLGVLLAIVCPMVLFSIFEAHKLWHTQNGYKVLVIFFYYFWVITLASFIRTATSDPGVLPRNIHLSQLRNNYQIPQEYYNLITLPTHSSISKDITIKYCPSCRIWRPPRSSHCSTCNVCVMVHDHHCIWVNNCIGKRNYRFFLIFLLGAILSSVILLTNCAIHIARESGGPRDCPVAILLLCYAGLTLWYPAILFTYHIFMAGNQQTTREFLKGIGSKKNPVFHRVVKEENIYNKGSFLKNMGHLMLEPRGPSFVSARKPHEAGDWRFMDLSPAHSFEKIQKI
partner: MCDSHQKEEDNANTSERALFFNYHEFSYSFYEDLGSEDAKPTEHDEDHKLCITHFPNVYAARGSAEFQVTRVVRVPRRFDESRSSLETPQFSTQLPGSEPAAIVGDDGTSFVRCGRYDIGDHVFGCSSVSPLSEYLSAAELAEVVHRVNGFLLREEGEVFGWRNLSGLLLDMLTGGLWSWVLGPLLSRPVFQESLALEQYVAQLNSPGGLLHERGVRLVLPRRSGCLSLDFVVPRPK

Variants of: B1
Conditions: with erfd_yeast SHR5, P41912

effect of a mutation on the interaction	Variant
with no effect	MALVSRRSTRSESTSITKEEHTGEGSLTKLFFRWLVTLEGDQDINDGKGYISLPNVSNYIFFLGGRFRTVKGAKPLWLGVLLAIVCPMVLFSIFEAHKLWHTQNGYKVLVIFFYYFWVITLASFIRTATSDPGVLPRNIHLSQLRNNYQIPQEYYNLITLPTHSSISKDITIKYCPSCRIWRPPRSSHCSTCNVCVMVHDAHCIWVNNCIGKRNYRFFLIFLLGAILSSVILLTNCAIHIARESGGPRDCPVAILLLCYAGLTLWYPAILFTYHIFMAGNQQTTREFLKGIGSKKNPVFHRVVKEENIYNKGSFLKNMGHLMLEPRGPSFVSARKPHEAGDWRFMDLSPAHSFEKIQKI [H201A]
disrupting interaction strength	MALVSRRSTRSESTSITKEEHTGEGSLTKLFFRWLVTLEGDQDINDGKGYISLPNVSNYIFFLGGRFRTVKGAKPLWLGVLLAIVCPMVLFSIFEAHKLWHTQNGYKVLVIFFYYFWVITLASFIRTATSDPGVLPRNIHLSQLRNNYQIPQEYYNLITLPTHSSISKDITIKYCPSCRIWRPPRSSHSSTCNVCVMVHDHHCIWVNNCIGKRNYRFFLIFLLGAILSSVILLTNCAIHIARESGGPRDCPVAILLLCYAGLTLWYPAILFTYHIFMAGNQQTTREFLKGIGSKKNPVFHRVVKEENIYNKGSFLKNMGHLMLEPRGPSFVSARKPHEAGDWRFMDLSPAHSFEKIQKI [C189S]
